Measured values published in publication PMC9565799 (2022).

B1: TcpF (1–15) peptide (peptide)
peptide: FNDNYSSTSTVYATS
B2: TcpB (minor pilin, N-terminally truncated, first 28 residues excluded) (natural protein)
chain: GGELMIKSSNAFDVIELSSQIQRYASLSKINNRTNPILKDNKAKEFKDADLKWLKLENCPTAGDVPTTGNNNDLQDQFIACDADYRKGDLSYFGSQFEFSTYVHPSNPEIQRQIKQVVSYFQYRGMERAFIGDAAGYVISEAKKKGFSAQDYRIVLIEPDRVGYFESNAISYEEFIENPSARENFLLKATKDRTLALAVSLAQTGEIAMQRDGSVAFLEDSELCWDTAAGSAKSCLSVRYDTVGNKTELDLKQIDVVSAKGLSFESDGKTKTPVVSTYETFQDGGRAKTINAIECPTGLNNRFAAVVSSFSTAGQNANFSSESAKDSQGTTQKDGSKGPHALLSGISLNWTLTNKVWDVTASIGIESGILPTSGIDSGSLLRNPKSLSFIAFQWCEN

Tests used:
Assay in all cases: ITC
[1] = molecular target: B2
[2] = molecular target: TcpF (1–10) peptide (Vibrio cholerae, UniProt P0C6Q5 21-30)
[3] = molecular target: TcpF (1–20) peptide (Vibrio cholerae, UniProt P0C6Q5 21-40)

Binder	Kd [1]	Kd [2]	Kd [3]
B1	3 µM		
B2		506 µM	1.7 µM
